The target of the assay is CXCR2-4A/IL (S342A/S346A/S347A/S348A and I323A/L324A) (human). In words: co-IP.

β-arrestin1, sequence (P49407 whole entry): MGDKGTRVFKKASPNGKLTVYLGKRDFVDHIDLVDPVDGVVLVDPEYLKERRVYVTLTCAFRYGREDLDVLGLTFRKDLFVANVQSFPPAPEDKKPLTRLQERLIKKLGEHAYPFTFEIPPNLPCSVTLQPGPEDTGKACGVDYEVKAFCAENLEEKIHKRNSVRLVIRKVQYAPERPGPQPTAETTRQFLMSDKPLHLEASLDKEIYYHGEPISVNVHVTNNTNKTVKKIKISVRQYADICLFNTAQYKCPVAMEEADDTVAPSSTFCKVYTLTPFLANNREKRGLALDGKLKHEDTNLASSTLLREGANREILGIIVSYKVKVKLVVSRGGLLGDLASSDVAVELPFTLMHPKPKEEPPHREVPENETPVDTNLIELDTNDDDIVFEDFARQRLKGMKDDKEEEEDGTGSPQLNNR

In the case of “β-arrestin1 (from UniProt P49407 1-418) (natural protein)”, the reduction of binding (co-precipitated β-arrestin1) stood at 90%.

Source of the values: article PMC3966550.
